Assays:
[1] = tested on: IgE from pooled mite-allergic human sera; assay: Monoclonal Capture ELISA (Example 8B, Table 7); type: binding
Description: Assays were carried out as follows. A microtiter plate as described in Example 5 was coated overnight at 4° C. with 100 ng/well of anti-Der f 1 protein monoclonal antibody 6A8, denoted herein as anti-Der f 1 MAb 6A8, provided by Dr. Martin Chapman. The plate was washed in the manner described above. The following proteins were then added to wells, having been diluted in Assay Buffer in a 2-fold dilution series, from 0.75 to 50 ng/well: Heska native Derf1, P. pastoris-expressed PDerf1303b, and E. coli-expressed PDerf1303c. After incubation for 1 hour at room temperature, plates were washed as described in Example 5. Then 100 μl per well of a 1:1000 dilution in Assay Buffer of biotinylated anti-Der f 1 monoclonal antibody 4C1, also denoted anti-Der f 1 MAb 4C1, provided by Dr. Martin Chapman, was added for 1 hour at room temperature. Plates were washed, streptavidin-HRP conjugate was added, and plates were developed as described in Example 5.
B. The Der f 1 proteins described in Example 8B were reacted as described in Example 6 with a pool of serum samples collected from 16 mite-allergic human patients.

[2] = tested on: IgE from mite-allergic or normal human sera; assay: ELISA, binding of IgE from human sera to coated Der f 1 proteins or mite extracts, detected with FcεR1α-biotin

B1: PDerf1303b: Recombinant Der f 1 expressed by P. pastoris HCY215 from nDerf1909b (pro-form, SEQ ID NO:29); actually secreted as mature form (protein, listed as Dermatophagoides farinae)
chain: RPASIKTFEEFKKAFNKNYATVEEEEVARKNFLESLKYVEANKGAINHLSDLSLDEFKNRYLMSAEAFEQLKTQFDLNAETSACRINSVNVPSELDLRSLRTVTPIRMQGGCGSCWAFSGVAATESAYLAYRNTSLDLSEQELVDCASQHGCHGDTIPRGIEYIQQNGVVEERSYPYVAREQRCRRPNSQHYGISNYCQIYPPDVKQIREALTQTHTAIAVIIGIKDLRAFQHYDGRTIIQHDNGYQPNYHAVNIVGYGSTQGDDYWIVRNSWDTTWGDSGYGYFQAGNNLMMIEQYPYVVIM
OD, Monoclonal Capture ELISA ([1]; 0.39 ng protein per well): 434 OD | OD, Monoclonal Capture ELISA ([1]; 0.78 ng protein per well): 871 OD | OD, Monoclonal Capture ELISA ([1]; 1.55 ng protein per well): 1399 OD | OD, Monoclonal Capture ELISA ([1]; 3.1 ng protein per well): 2103 OD | OD, Monoclonal Capture ELISA ([1]; 6.25 ng protein per well): 2463 OD | OD, Monoclonal Capture ELISA ([1]; 12.5 ng protein per well): 2388 OD | OD, Monoclonal Capture ELISA ([1]; 25 ng protein per well): 2389 OD | OD, bound IgE ([2]; Assay Number 1, serum human 1916): 11 OD multiplied by 1000 | OD, bound IgE ([2]; Assay Number 1, serum human3848): 1192 OD multiplied by 1000 | OD, bound IgE ([2]; Assay Number 1, serum human 3958): 2244 OD multiplied by 1000 | OD, bound IgE ([2]; Assay Number 1, serum human 3960): 646 OD multiplied by 1000 | OD, bound IgE ([2]; Assay Number 1, serum human 3961): 433 OD multiplied by 1000 | OD, bound IgE ([2]; Assay Number 1, serum human 3987): 1377 OD multiplied by 1000 | OD, bound IgE ([2]; Assay Number 1, serum human 4289): 182 OD multiplied by 1000 | OD, bound IgE ([2]; Assay Number 1, serum human 4467): 694 OD multiplied by 1000 | OD, bound IgE ([2]; Assay Number 1, serum human 5207): 2153 OD multiplied by 1000 | OD, bound IgE ([2]; Assay Number 1, serum human pool): 1547 OD multiplied by 1000 | OD, bound IgE ([2]; Assay Number 2, serum Heska human B): 2 OD multiplied by 1000 | OD, bound IgE ([2]; Assay Number 2, serum Heska human C): 4 OD multiplied by 1000 | OD, bound IgE ([2]; Assay Number 2, serum Heska human D): 0 OD multiplied by 1000 | OD, bound IgE ([2]; Assay Number 2, serum Heska human E): 1 OD multiplied by 1000 | OD, bound IgE ([2]; Assay Number 2, serum Heska human F): 0 OD multiplied by 1000 | OD, bound IgE ([2]; Assay Number 2, serum Heska human G): 0 OD multiplied by 1000 | OD, bound IgE ([2]; Assay Number 2, serum Heska human H): 0 OD multiplied by 1000 | OD, bound IgE ([2]; Assay Number 2, serum Heska human I): 4 OD multiplied by 1000 | OD, bound IgE ([2]; Assay Number 2, serum Heska human J): 0 OD multiplied by 1000 | OD, bound IgE ([2]; Assay Number 2, serum Heska human K): 0 OD multiplied by 1000 | OD, bound IgE ([2]; Assay Number 2, serum Heska human L): 0 OD multiplied by 1000 | OD, bound IgE ([2]; Assay Number 2, serum Heska human M): 0 OD multiplied by 1000 | OD, bound IgE ([2]; Assay Number 2, serum Heska human N): 370 OD multiplied by 1000 | OD, bound IgE ([2]; Assay Number 2, serum Heska human O): 0 OD multiplied by 1000 | OD, bound IgE ([2]; Assay Number 2, serum Heska human P): 0 OD multiplied by 1000 | OD, bound IgE ([2]; Assay Number 2, serum Heska human Q): 0 OD multiplied by 1000 | OD, bound IgE ([2]; Assay Number 2, serum Heska human R): 0 OD multiplied by 1000 | OD, bound IgE ([2]; Assay Number 2, serum human 1916): 15 OD multiplied by 1000 | OD, bound IgE ([2]; Assay Number 2, serum human 3848): 904 OD multiplied by 1000 | OD, bound IgE ([2]; Assay Number 2, serum human 3958): 2369 OD multiplied by 1000 | OD, bound IgE ([2]; Assay Number 2, serum human 3960): 1046 OD multiplied by 1000 | OD, bound IgE ([2]; Assay Number 2, serum human 3961): 709 OD multiplied by 1000 | OD, bound IgE ([2]; Assay Number 2, serum human 3987): 2457 OD multiplied by 1000 | OD, bound IgE ([2]; Assay Number 2, serum human 4289): 160 OD multiplied by 1000 | OD, bound IgE ([2]; Assay Number 2, serum human 4467): 660 OD multiplied by 1000 | OD, bound IgE ([2]; Assay Number 2, serum human 5207): 1304 OD multiplied by 1000 | OD, bound IgE ([2]; Assay Number 2, serum human pool): 1551 OD multiplied by 1000 | reactivity: share of human serum samples reactive to native Der f 1 proteins that are also reactive to the recombinant protein ([2]; Table 1, 9 human samples (8 sera and pool), OD numbers greater than 100 positive): 100% | reactivity: share of human serum samples reactive to native Der f 1 proteins that are also reactive to the recombinant protein ([2]; Table 2, 10 human serum samples): 100% | OD, bound IgE ([2]; Table 3, sera 429, PDerf1303b preparation number A166-26, PDerf1223b preparation 1000-7): 104 OD multiplied by 1000 | OD, bound IgE ([2]; Table 3, sera 1916, PDerf1303b preparation number A166-26, PDerf1223b preparation 1000-7): 0 OD multiplied by 1000 | OD, bound IgE ([2]; Table 3, sera 3848, PDerf1303b preparation number A166-26, PDerf1223b preparation 1000-7): 457 OD multiplied by 1000 | OD, bound IgE ([2]; Table 3, sera 3958, PDerf1303b preparation number A166-26, PDerf1223b preparation 1000-7): 2616 OD multiplied by 1000 | OD, bound IgE ([2]; Table 3, sera 3960, PDerf1303b preparation number A166-26, PDerf1223b preparation 1000-7): 1420 OD multiplied by 1000 | OD, bound IgE ([2]; Table 3, sera 3961, PDerf1303b preparation number A166-26, PDerf1223b preparation 1000-7): 744 OD multiplied by 1000 | OD, bound IgE ([2]; Table 3, sera 3987, PDerf1303b preparation number A166-26, PDerf1223b preparation 1000-7): 2588 OD multiplied by 1000 | OD, bound IgE ([2]; Table 3, sera 4467, PDerf1303b preparation number A166-26, PDerf1223b preparation 1000-7): 780 OD multiplied by 1000 | OD, bound IgE ([2]; Table 3, sera 5207, PDerf1303b preparation number A166-26, PDerf1223b preparation 1000-7): 1887 OD multiplied by 1000 | OD, bound IgE ([2]; Table 3, sera human pool, PDerf1303b preparation number A166-26, PDerf1223b preparation 1000-7): 1226 OD multiplied by 1000 | OD, bound IgE ([2]; Table 6, pool of sera from 16 mite-allergic human patients, 6.2 ng protein per well): 53 OD | OD, bound IgE ([2]; Table 6, pool of sera from 16 mite-allergic human patients, 12.5 ng protein per well): 178 OD | OD, bound IgE ([2]; Table 6, pool of sera from 16 mite-allergic human patients, 25 ng protein per well): 240 OD | OD, bound IgE ([2]; Table 6, pool of sera from 16 mite-allergic human patients, 50 ng protein per well): 293 OD | OD, bound IgE ([2]; Table 6, pool of sera from 16 mite-allergic human patients, 100 ng protein per well): 354 OD | OD, bound IgE ([2]; Table 6, pool of sera from 16 mite-allergic human patients, 200 ng protein per well): 484 OD

— patent US8465945B2, “Method for production and use of mite group 1 proteins” (Merck Patent GmbH, priority 1999, dated 2013)
